Measurements taken from patent US20250197490A1 (HBM ALPHA THERAPEUTICS, published 2025).

T1: corticotropin-releasing hormone (CRH) peptide (human and mouse, UniProt P01143 145-185 (rat entry), not fully specified)
T1 peptide: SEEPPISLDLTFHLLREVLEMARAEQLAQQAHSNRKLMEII


Molecular target: T1, corticotropin-releasing hormone (CRH) …
Test: cell-based or functional assay

hCRHR1-Luc 0.5 nM CRH IC50 [nM] | Binder
4.42 | PR302309-1 (antibody, human IgG1, kappa, V domains shown) VH: QIQLVQSGPELKKPGETVKISCKASGYTFTNYGMNWVKQAPGKVLKWMGWINTYTGEPIYTDDFKGRFAFSLETSASTAYLQINNLKNEDTATYFCSRSTMITTGGVFAYWGQGTLVTVSA VL: DVVMTQSPLSLPVTLGQPASISCRSSQTIVHSDGNTYLEWFQQRPGQSPRRLIYKVSNRFSGVPDRFSGSGSGTDFTLKISRVEAEDVGVYYCFQGSHVPWTFGGGTKVEIKR
1.08 | PR302309-6 (antibody, human IgG1, kappa, V domains shown) VH: QIQLVQSGPELKKPGETVKISCKASGYTFTNYGMNWVKQAPGKVLKWMGWINTYTGEPIYTDDFKGRFAFSLETSASTAYLQINNLKNEDTATYFCSRSTMITTGGVFAYWGQGTLVTVSA VL: DVVMTQTPLSSPVTLGQPASISCRSSQTIVHSDGNTYLEWYQQRPGQPPRLLIYKVSNRFSGVPDRFSGSGAGTDFTLKISRVEAEDLGVYYCFQGSHVPWTFGGGTKVEIKR
6.69 | PR302309-17 (antibody, human IgG1, kappa, V domains shown) VH: QVQLVQSGSELKKPGASVKVSCKASGYTFTNYGMNWVRQAPGQGLEWMGWINTYTGEPIYTDDFKGRFVFSLDTSVSTAYLQISSLKAEDTAVYYCARSTMITTGGVFAYWGQGTLVTVSS VL: DVVMTQSPLSLPVTLGQPASISCRSSQTIVHSDGNTYLEWYQQRPGQSPRLLIYKVSNRFSGVPDRFSGSGSGTDFTLKISRVEAEDLGVYYCFQGSHVPWTFGGGTKVEIKR
1.26 | PR302309-4 (antibody, human IgG1, kappa, V domains shown) VH: QIQLVQSGPELKKPGETVKISCKASGYTFTNYGMNWVKQAPGKVLKWMGWINTYTGEPIYTDDFKGRFAFSLETSASTAYLQINNLKNEDTATYFCSRSTMITTGGVFAYWGQGTLVTVSA VL: DVVMTQTPLSLSVTPGQPASISCRSSQTIVHSDGNTYLEWYLQKPGQSPQLLIYKVSNRFSGVPDRFSGSGSGTDFTLKISRVEAEDLGVYYCFQGSHVPWTFGGGTKVEIKR
0.454 | PR302309-5 (antibody, human IgG1, kappa, V domains shown) VH: QIQLVQSGPELKKPGETVKISCKASGYTFTNYGMNWVKQAPGKVLKWMGWINTYTGEPIYTDDFKGRFAFSLETSASTAYLQINNLKNEDTATYFCSRSTMITTGGVFAYWGQGTLVTVSA VL: DIVMTQTPLSSPVTLGQPASISCRSSQTIVHSDGNTYLEWLQQRPGQPPRLLIYKVSNRFSGVPDRFSGSGAGTDFTLKISRVEAEDVGVYYCFQGSHVPWTFGGGTKVEIKR
0.773 | PR302309-2 (antibody, human IgG1, kappa, V domains shown) VH: QIQLVQSGPELKKPGETVKISCKASGYTFTNYGMNWVKQAPGKVLKWMGWINTYTGEPIYTDDFKGRFAFSLETSASTAYLQINNLKNEDTATYFCSRSTMITTGGVFAYWGQGTLVTVSA VL: DVVMTQSPLSLPVTLGQPASISCRSSQTIVHSDGNTYLEWYQQRPGQSPRLLIYKVSNRFSGVPDRFSGSGSGTDFTLKISRVEAEDLGVYYCFQGSHVPWTFGGGTKVEIKR
2.22 | PR302309-3 (antibody, human IgG1, kappa, V domains shown) VH: QIQLVQSGPELKKPGETVKISCKASGYTFTNYGMNWVKQAPGKVLKWMGWINTYTGEPIYTDDFKGRFAFSLETSASTAYLQINNLKNEDTATYFCSRSTMITTGGVFAYWGQGTLVTVSA VL: DIVMTQTPLSLSVTPGQPASISCRSSQTIVHSDGNTYLEWYLQKPGQSPQLLIYKVSNRFSGVPDRFSGSGSGTDFTLKISRVEAEDVGVYYCFQGSHVPWTFGGGTKVEIKR
7.23 | PR302309-13 (antibody, human IgG1, kappa, V domains shown) VH: QVQLVQSGSELKKPGASVKVSCKASGYTFTNYGMNWVRQAPGQGLEWMGWINTYTGEPIYTDDFKGRFVFSLDTSVSTAYLQISSLKAEDTAVYYCARSTMITTGGVFAYWGQGTLVTVSS VL: DVLMAQTPLSLPVSLGDQASISCRSSQTIVHSDGNTYLEWYLQKPGQSPKLLIYKVSNRFSGVPDRFSGSGSGTDFTLKISRVEAEDLGVYYCFQGSHVPWTFGGGTKLEIKR
1.68 | PR302309-14 (antibody, human IgG1, kappa, V domains shown) VH: QIQLVQSGSELKKPGASVKVSCKASGYTFTNYGMNWVRQAPGQGLEWMGWINTYTGEPIYTDDFKGRFVFSLDTSVSTAYLQISSLKAEDTAVYYCSRSTMITTGGVFAYWGQGTLVTVSS VL: DVLMAQTPLSLPVSLGDQASISCRSSQTIVHSDGNTYLEWYLQKPGQSPKLLIYKVSNRFSGVPDRFSGSGSGTDFTLKISRVEAEDLGVYYCFQGSHVPWTFGGGTKLEIKR

Molecular target: T1, corticotropin-releasing hormone (CRH) …
Test: cell-based or functional assay
Remark: another data set of the same source

hCRHR1-Luc 0.5 nM CRH IC50 [nM] | Binder
0.816 | PR302334-8 (antibody, human IgG1, kappa, V domains shown) VH: EVQLVESGGGLVQPGGSLRLSCAASGFTFSTYAMSWVRQAPGKGLEWVASIRSGGTTYYPDSVKGRFTISRDNSKNTLYLQMNSLRAEDTAVYYCTRGIDWGQGTTVTVSS VL: EIVMTQSPATLSVSPGERATLSCKASQSVNNDVAWYQQKPGQAPRLLIYYASNRYTGIPARFSGSGSGTEFTLTISSLQSEDLAVYFCQQDYSSWTFGGGTKVEIKR
0.92 | PR302334-22 (antibody, human IgG1, kappa, V domains shown) VH: EVQLVESGGGLVQPGGSLRLSCAASGFTFSTYAMSWVRQAPGKGLEWVSSIRSGGTTYYPDSVKGRFTISRDNSKNSLYLQMNSLRAEDTAVYYCARGIDWGQGTTVTVSS VL: EIVMTQSPATLSVSPGERATLSCKASQSVNNDVAWYQQKPGQAPRLLIYYASNRYTGIPARFSGSGSGTEFTLTISSLQSEDLAVYFCQQDYSSWTFGGGTKVEIKR
0.279 | PR302334-18 (antibody, human IgG1, kappa, V domains shown) VH: EVQLVESGGGLVQPGGSLRLSCAASGFTFSTYAMSWVRQAPGKGLEWVASIRSGGTTYYPDSVKGRFTISRDNSKNSLYLQMNSLRAEDTAVYYCTRGIDWGQGTTVTVSS VL: NIVMTQTPKFLLVSAGDRITITCKASQSVNNDVAWYQQKPGQSPKLLIYYASNRYTGVPDRFTGSGYGTDFTFTISTVQAEDLAVYFCQQDYSSWTFGGGTNLEIKR
0.778 | PR302334-24 (antibody, human IgG1, kappa, V domains shown) VH: EVQLVESGGGLVKPGGSLRLSCAASGFTFSTYAMSWVRQAPGKGLEWVASIRSGGTTYYPDSVKGRFTISRDNAKNSLYLQMNSLRAEDTAVYYCTRGIDWGQGTTVTVSS VL: DIVMTQSPDSLAVSLGERATINCKASQSVNNDVAWYQQKPGQPPRLLIYYASNRYTGVPDRFSGSGSGTDFTLTISSLQAEDLAVYFCQQDYSSWTFGGGTKVEIKR
0.986 | PR302334-12 (antibody, human IgG1, kappa, V domains shown) VH: EVQLVESGGGLVQPGGSLRLSCAASGFTFSTYAMSWVRQAPGKGLEWVASIRSGGTTYYPDSVKGRFTISRDNSKNTLYLQMNSLRAEDTAVYYCTRGIDWGQGTTVTVSS VL: DIQMTQSSLSASVSLGDRVTITCKASQSVNNDVAWYQQKPGKAPRLLIYYASNRYTGVPSRFSGSGSGTDFTFTISSLQPEDLATYFCQQDYSSWTFGGGTKVEIKR
1.7 | PR302334-25 (antibody, human IgG1, kappa, V domains shown) VH: EVQLVESGGGLVKPGGSLRLSCAASGFTFSTYAMSWVRQAPGKGLEWVASIRSGGTTYYPDSVKGRFTISRDNAKNSLYLQMNSLRAEDTAVYYCTRGIDWGQGTTVTVSS VL: DIQMTQSSLSASVSLGDRVTITCKASQSVNNDVAWYQQKPGKAPRLLIYYASNRYTGVPSRFSGSGSGTDFTFTISSLQPEDLATYFCQQDYSSWTFGGGTKVEIKR
1 | PR302334-11 (antibody, human IgG1, kappa, V domains shown) VH: EVQLVESGGGLVQPGGSLRLSCAASGFTFSTYAMSWVRQAPGKGLEWVASIRSGGTTYYPDSVKGRFTISRDNSKNTLYLQMNSLRAEDTAVYYCTRGIDWGQGTTVTVSS VL: DIQMTQSSLSASVSLGDRVTITCKASQSVNNDVAWYQQKPGKAPRLLIYYASNRYTGVPSRFSGSGSGTDFTFTISSLQPEDIATYYCQQDYSSWTFGGGTKVEIKR
1.42 | PR302334-9 (antibody, human IgG1, kappa, V domains shown) VH: EVQLVESGGGLVQPGGSLRLSCAASGFTFSTYAMSWVRQAPGKGLEWVASIRSGGTTYYPDSVKGRFTISRDNSKNTLYLQMNSLRAEDTAVYYCTRGIDWGQGTTVTVSS VL: DIVMTQSPDSLAVSLGERATINCKASQSVNNDVAWYQQKPGQPPRLLIYYASNRYTGVPDRFSGSGSGTDFTLTISSLQAEDVAVYYCQQDYSSWTFGGGTKVEIKR
0.839 | PR302334-10 (antibody, human IgG1, kappa, V domains shown) VH: EVQLVESGGGLVQPGGSLRLSCAASGFTFSTYAMSWVRQAPGKGLEWVASIRSGGTTYYPDSVKGRFTISRDNSKNTLYLQMNSLRAEDTAVYYCTRGIDWGQGTTVTVSS VL: DIVMTQSPDSLAVSLGERATINCKASQSVNNDVAWYQQKPGQPPRLLIYYASNRYTGVPDRFSGSGSGTDFTLTISSLQAEDLAVYFCQQDYSSWTFGGGTKVEIKR
12.2 | PR302334-17 (antibody, human IgG1, kappa, V domains shown) VH: EVQLVESGGGLVQPGGSLRLSCAASGFTFSTYAMSWVRQAPGKGLEWVSSIRSGGTTYYPDSVKGRFTISRDNSKNSLYLQMNSLRAEDTAVYYCARGIDWGQGTTVTVSS VL: NIVMTQTPKFLLVSAGDRITITCKASQSVNNDVAWYQQKPGQSPKLLIYYASNRYTGVPDRFTGSGYGTDFTFTISTVQAEDLAVYFCQQDYSSWTFGGGTNLEIKR
5.12 | PR302334-15 (antibody, human IgG1, kappa, V domains shown) VH: EVQLVESGGGLVKPGGSLRLSCAASGFTFSTYAMSWVRQAPGKGLEWVSSIRSGGTTYYPDSVKGRFTISRDNAKNSLYLQMNSLRAEDTAVYYCARGIDWGQGTTVTVSS VL: NIVMTQTPKFLLVSAGDRITITCKASQSVNNDVAWYQQKPGQSPKLLIYYASNRYTGVPDRFTGSGYGTDFTFTISTVQAEDLAVYFCQQDYSSWTFGGGTNLEIKR
0.339 | PR302334-16 (antibody, human IgG1, kappa, V domains shown) VH: EVQLVESGGGLVKPGGSLRLSCAASGFTFSTYAMSWVRQAPGKGLEWVASIRSGGTTYYPDSVKGRFTISRDNAKNSLYLQMNSLRAEDTAVYYCTRGIDWGQGTTVTVSS VL: NIVMTQTPKFLLVSAGDRITITCKASQSVNNDVAWYQQKPGQSPKLLIYYASNRYTGVPDRFTGSGYGTDFTFTISTVQAEDLAVYFCQQDYSSWTFGGGTNLEIKR
